Data taken from the Human Domainome abundance scans (Beltran et al. 2025).
± gives the uncertainty stated by the source.

B1: Homeobox protein SIX3, residues 212 to 262; numbered along this chain, O95343 (parent)
chain: CFKERTRSLLREWYLQDPYPNPSKKRELAQATGLTPTQVGNWFKNRRQRDR

Variants of: B1
Assay: abundance fitness (aPCA) (normalised: wild type 0, dead -1); higher = more abundant; growth selection in yeast, the domain comes from the species named
Conditions: Homo sapiens

| Variant | abundance fitness |
| --- | --- |
| CFKERTRSLLREWYLQDPYPNPSKKRELAQATGLTPTQTGNWFKNRRQRDR [V39T] | -0.573 ± 0.1 |
| CFKERTRSLLREWYLQDPYPNPSKKRELAQATGLTPTQYGNWFKNRRQRDR [V39Y] | -0.897 ± 0.28 |
| CFKERTRSLLREWYLQDPYPNPSKKRELAQATGLTPTQVANWFKNRRQRDR [G40A] | -0.146 ± 0.063 |
| CFKERTRSLLREWYLQDPYPNPSKKRELAQATGLTPTQVCNWFKNRRQRDR [G40C] | -0.13 ± 0.085 |
| CFKERTRSLLREWYLQDPYPNPSKKRELAQATGLTPTQVDNWFKNRRQRDR [G40D] | -0.227 ± 0.062 |
| CFKERTRSLLREWYLQDPYPNPSKKRELAQATGLTPTQVENWFKNRRQRDR [G40E] | -0.099 ± 0.049 |
| CFKERTRSLLREWYLQDPYPNPSKKRELAQATGLTPTQVFNWFKNRRQRDR [G40F] | -0.858 ± 0.13 |
| CFKERTRSLLREWYLQDPYPNPSKKRELAQATGLTPTQVHNWFKNRRQRDR [G40H] | -0.122 ± 0.11 |
| CFKERTRSLLREWYLQDPYPNPSKKRELAQATGLTPTQVINWFKNRRQRDR [G40I] | -0.247 ± 0.15 |
| CFKERTRSLLREWYLQDPYPNPSKKRELAQATGLTPTQVKNWFKNRRQRDR [G40K] | 0.097 ± 0.05 |
| CFKERTRSLLREWYLQDPYPNPSKKRELAQATGLTPTQVLNWFKNRRQRDR [G40L] | -0.731 ± 0.078 |
| CFKERTRSLLREWYLQDPYPNPSKKRELAQATGLTPTQVMNWFKNRRQRDR [G40M] | -0.621 ± 0.12 |
| CFKERTRSLLREWYLQDPYPNPSKKRELAQATGLTPTQVNNWFKNRRQRDR [G40N] | 0.131 ± 0.099 |
| CFKERTRSLLREWYLQDPYPNPSKKRELAQATGLTPTQVRNWFKNRRQRDR [G40R] | 0.008 ± 0.048 |
| CFKERTRSLLREWYLQDPYPNPSKKRELAQATGLTPTQVSNWFKNRRQRDR [G40S] | 0.006 ± 0.06 |
| CFKERTRSLLREWYLQDPYPNPSKKRELAQATGLTPTQVTNWFKNRRQRDR [G40T] | -0.183 ± 0.089 |
| CFKERTRSLLREWYLQDPYPNPSKKRELAQATGLTPTQVVNWFKNRRQRDR [G40V] | -0.6 ± 0.076 |
| CFKERTRSLLREWYLQDPYPNPSKKRELAQATGLTPTQVWNWFKNRRQRDR [G40W] | -0.81 ± 0.052 |
| CFKERTRSLLREWYLQDPYPNPSKKRELAQATGLTPTQVYNWFKNRRQRDR [G40Y] | -0.871 ± 0.23 |
| CFKERTRSLLREWYLQDPYPNPSKKRELAQATGLTPTQVGAWFKNRRQRDR [N41A] | -0.496 ± 0.2 |
| CFKERTRSLLREWYLQDPYPNPSKKRELAQATGLTPTQVGCWFKNRRQRDR [N41C] | -0.459 ± 0.17 |
| CFKERTRSLLREWYLQDPYPNPSKKRELAQATGLTPTQVGDWFKNRRQRDR [N41D] | -0.497 ± 0.2 |
| CFKERTRSLLREWYLQDPYPNPSKKRELAQATGLTPTQVGGWFKNRRQRDR [N41G] | -0.55 ± 0.12 |
| CFKERTRSLLREWYLQDPYPNPSKKRELAQATGLTPTQVGHWFKNRRQRDR [N41H] | -0.168 ± 0.16 |
| CFKERTRSLLREWYLQDPYPNPSKKRELAQATGLTPTQVGIWFKNRRQRDR [N41I] | -0.627 ± 0.24 |
| CFKERTRSLLREWYLQDPYPNPSKKRELAQATGLTPTQVGKWFKNRRQRDR [N41K] | 0.252 ± 0.093 |

| Variant | abundance fitness |
| --- | --- |
| CFKERTRSLLREWYLQDPYPNPSKKRELAQATGLTPTQVGLWFKNRRQRDR [N41L] | -0.516 ± 0.12 |
| CFKERTRSLLREWYLQDPYPNPSKKRELAQATGLTPTQVGMWFKNRRQRDR [N41M] | -0.286 ± 0.12 |
| CFKERTRSLLREWYLQDPYPNPSKKRELAQATGLTPTQVGPWFKNRRQRDR [N41P] | -0.614 ± 0.29 |
| CFKERTRSLLREWYLQDPYPNPSKKRELAQATGLTPTQVGQWFKNRRQRDR [N41Q] | -0.402 ± 0.12 |
| CFKERTRSLLREWYLQDPYPNPSKKRELAQATGLTPTQVGRWFKNRRQRDR [N41R] | 0.142 ± 0.065 |
| CFKERTRSLLREWYLQDPYPNPSKKRELAQATGLTPTQVGSWFKNRRQRDR [N41S] | -0.204 ± 0.1 |
| CFKERTRSLLREWYLQDPYPNPSKKRELAQATGLTPTQVGVWFKNRRQRDR [N41V] | -0.325 ± 0.12 |
| CFKERTRSLLREWYLQDPYPNPSKKRELAQATGLTPTQVGNAFKNRRQRDR [W42A] | -0.793 ± 0.052 |
| CFKERTRSLLREWYLQDPYPNPSKKRELAQATGLTPTQVGNCFKNRRQRDR [W42C] | -0.901 ± 0.36 |
| CFKERTRSLLREWYLQDPYPNPSKKRELAQATGLTPTQVGNDFKNRRQRDR [W42D] | -0.722 ± 0.29 |
| CFKERTRSLLREWYLQDPYPNPSKKRELAQATGLTPTQVGNEFKNRRQRDR [W42E] | -0.893 ± 0.098 |
| CFKERTRSLLREWYLQDPYPNPSKKRELAQATGLTPTQVGNFFKNRRQRDR [W42F] | -0.764 ± 0.3 |
| CFKERTRSLLREWYLQDPYPNPSKKRELAQATGLTPTQVGNGFKNRRQRDR [W42G] | -0.85 ± 0.098 |
| CFKERTRSLLREWYLQDPYPNPSKKRELAQATGLTPTQVGNHFKNRRQRDR [W42H] | -0.702 ± 0.34 |
| CFKERTRSLLREWYLQDPYPNPSKKRELAQATGLTPTQVGNIFKNRRQRDR [W42I] | -0.897 ± 0.42 |
| CFKERTRSLLREWYLQDPYPNPSKKRELAQATGLTPTQVGNKFKNRRQRDR [W42K] | -0.871 ± 0.32 |
| CFKERTRSLLREWYLQDPYPNPSKKRELAQATGLTPTQVGNPFKNRRQRDR [W42P] | -1 ± 0.14 |
| CFKERTRSLLREWYLQDPYPNPSKKRELAQATGLTPTQVGNQFKNRRQRDR [W42Q] | -0.854 ± 0.083 |
| CFKERTRSLLREWYLQDPYPNPSKKRELAQATGLTPTQVGNRFKNRRQRDR [W42R] | -0.933 ± 0.079 |
| CFKERTRSLLREWYLQDPYPNPSKKRELAQATGLTPTQVGNSFKNRRQRDR [W42S] | -1.06 ± 0.27 |
| CFKERTRSLLREWYLQDPYPNPSKKRELAQATGLTPTQVGNTFKNRRQRDR [W42T] | -0.461 ± 0.21 |
| CFKERTRSLLREWYLQDPYPNPSKKRELAQATGLTPTQVGNVFKNRRQRDR [W42V] | -0.986 ± 0.078 |
| CFKERTRSLLREWYLQDPYPNPSKKRELAQATGLTPTQVGNYFKNRRQRDR [W42Y] | -0.398 ± 0.05 |
| CFKERTRSLLREWYLQDPYPNPSKKRELAQATGLTPTQVGNWAKNRRQRDR [F43A] | -0.96 ± 0.22 |
| CFKERTRSLLREWYLQDPYPNPSKKRELAQATGLTPTQVGNWCKNRRQRDR [F43C] | -0.755 ± 0.096 |
